B1: Autoimmune regulator (Homo sapiens), O43918 (parent)
chain: MATDAALRRLLRLHRTEIAVAVDSAFPLLHALADHDVVPEDKFQETLHLKEKEGCPQAFHALLSWLLTQDSTAILDFWRVLFKDYNLERYGRLQPILDSFPKDVDLSQPRKGRKPPAVPKALVPPPRLPTKRKASEEARAAAPAALTPRGTASPGSQLKAKPPKKPESSAEQQRLPLGNGIQTMSASVQRAVAMSSGDVPGARGAVEGILIQQVFESGGSKKCIQVGGEFYTPSKFEDSGSGKNKARSSSGPKPLVRAKGAQGAAPGGGEARLGQQGSVPAPLALPSDPQLHQKNEDECAVCRDGGELICCDGCPRAFHLACLSPPLREIPSGTWRCSSCLQATVQEVQPRAEEPRPQEPPVETPLPPGLRSAGEEVRGPPGEPLAGMDTTLVYKHLPAPPSAAPLPGLDSSALHPLLCVGPEGQQNLAPGARCGVCGDGTDVLRCTHCAAAFHWRCHFPAGTSRPGTGLRCRSCSGDVTPAPVEGVLAPSPARLAPGPAKDDTASHEPALHRDDLESLLSEHTFDGILQWAIQSMARPAAPFPS

Variants of B1 are the subject of the experiment. As to conditions: with daxx_human DAXX.
As to W78R, the “effect of a mutation on the interaction” value is on record as “decreasing interaction”.
